# US20190177411
# B1: kinase active Akt2 (SignalChem) (protein)
# chain: MNEVSVIKEGWLHKRGEYIKTWRPRYFLLKSDGSFIGYKERPEAPDQTLPPLNNFSVAECQLMKTERPRPNTFVIRCLQWTTVIERTFHVDSPDEREEWMRAIQMVANSLKQRAPGEDPMDYKCGSPSDSSTTEEMEVAVSKARAKVTMNDFDYLKLLGKGTFGKVILVREKATGRYYAMKILRKEVIIAKDEVAHTVTESRVLQNTRHPFLTALKYAFQTHDRLCFVMEYANGGELFFHLSRERVFTEERARFYGAEIVSALEYLHSRDVVYRDIKLENLMLDKDGHIKITDFGLCKEGISDGATMKTFCGTPEYLAPEVLEDNDYGRAVDWWGLGVVMYEMMCGRLPFYNQDHERLFELILMEEIRFPRTLSPEAKSLLAGLLKKDPKQRLGGGPSDAKEVMEHRFFLSINWQDVVQKKLLPPFKPQVTSEVDTRYFDDEFTAQSITITPPDRYDSLGLLELDQRTHFPQFSYSASIRE
# Key:
# [1] = target: Flag-tagged T346A PDK1 mutant
# Sequence of Flag-tagged T346A PDK1 mutant (chain, as listed by the source T346A): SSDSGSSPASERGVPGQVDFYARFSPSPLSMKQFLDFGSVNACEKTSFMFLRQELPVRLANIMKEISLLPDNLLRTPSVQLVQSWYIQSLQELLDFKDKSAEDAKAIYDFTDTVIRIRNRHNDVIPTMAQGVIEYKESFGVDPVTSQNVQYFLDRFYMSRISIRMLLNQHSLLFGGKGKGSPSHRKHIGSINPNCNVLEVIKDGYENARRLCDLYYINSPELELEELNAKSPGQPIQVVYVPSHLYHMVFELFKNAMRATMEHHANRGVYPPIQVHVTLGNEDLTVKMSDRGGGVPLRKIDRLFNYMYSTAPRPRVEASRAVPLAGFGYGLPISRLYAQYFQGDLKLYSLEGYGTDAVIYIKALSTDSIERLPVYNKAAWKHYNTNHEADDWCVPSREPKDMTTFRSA
# [2] = target: purified recombinant His-tagged PDK2 (Abcam), Q15119
# [3] = target: purified recombinant His-tagged PDK1 (Abcam)
# Sequence of purified recombinant His-tagged PDK1 (Abcam) (chain, as listed by the source): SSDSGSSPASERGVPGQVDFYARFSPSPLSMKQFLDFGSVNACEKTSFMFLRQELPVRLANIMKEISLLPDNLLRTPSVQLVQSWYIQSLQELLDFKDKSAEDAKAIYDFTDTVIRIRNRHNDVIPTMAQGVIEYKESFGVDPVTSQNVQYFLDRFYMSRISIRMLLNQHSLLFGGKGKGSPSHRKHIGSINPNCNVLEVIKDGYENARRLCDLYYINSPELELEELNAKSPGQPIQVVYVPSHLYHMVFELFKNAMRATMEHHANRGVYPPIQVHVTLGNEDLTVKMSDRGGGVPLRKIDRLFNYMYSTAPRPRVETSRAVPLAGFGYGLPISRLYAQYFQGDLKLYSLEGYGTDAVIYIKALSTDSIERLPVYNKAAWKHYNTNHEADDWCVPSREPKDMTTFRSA
# [4] = target: purified recombinant His-tagged PDK3 (Abcam), Q15120
# Sequence of purified recombinant His-tagged PDK3 (Abcam), Q15120 (Q15120 whole entry, looked up): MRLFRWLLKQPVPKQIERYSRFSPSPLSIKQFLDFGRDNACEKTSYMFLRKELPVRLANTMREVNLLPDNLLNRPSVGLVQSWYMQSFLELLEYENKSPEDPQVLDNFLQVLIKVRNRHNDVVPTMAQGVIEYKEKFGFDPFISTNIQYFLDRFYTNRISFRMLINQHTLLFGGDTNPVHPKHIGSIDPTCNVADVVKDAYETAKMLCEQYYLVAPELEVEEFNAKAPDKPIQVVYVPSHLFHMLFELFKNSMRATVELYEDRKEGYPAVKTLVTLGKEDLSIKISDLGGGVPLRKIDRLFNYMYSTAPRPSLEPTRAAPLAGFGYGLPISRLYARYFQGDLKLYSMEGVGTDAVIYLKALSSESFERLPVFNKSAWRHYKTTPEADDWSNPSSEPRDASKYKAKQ
# [5] = target: Flag-tagged wild type (WT) PDK1 (not specifically T346-phosphorylated: from normoxic PC3 cells, or dephosphorylated before the kinase assay)
# Sequence of Flag-tagged wild type (WT) PDK1 (not specifically T346-phosphorylated: from normoxic PC3 cells, or dephosphorylated before the kinase assay) (chain, as listed by the source): as the sequence (chain, as listed by the source) above
# [6] = target: purified recombinant His-tagged PDK4 (Abcam), Q16654
# Sequence of purified recombinant His-tagged PDK4 (Abcam), Q16654 (Q16654 10-411): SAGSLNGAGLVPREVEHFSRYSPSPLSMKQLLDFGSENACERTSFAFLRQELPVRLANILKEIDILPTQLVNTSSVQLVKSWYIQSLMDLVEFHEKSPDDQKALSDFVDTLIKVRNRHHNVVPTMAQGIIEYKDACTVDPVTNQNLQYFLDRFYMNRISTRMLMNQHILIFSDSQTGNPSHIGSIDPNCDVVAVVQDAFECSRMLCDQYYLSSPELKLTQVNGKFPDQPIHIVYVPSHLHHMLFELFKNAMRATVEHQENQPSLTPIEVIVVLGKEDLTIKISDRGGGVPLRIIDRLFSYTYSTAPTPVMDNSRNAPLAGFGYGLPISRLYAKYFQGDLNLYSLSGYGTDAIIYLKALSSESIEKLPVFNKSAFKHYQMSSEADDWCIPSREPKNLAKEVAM
protein,measurement,setting,value
B1,"phosphorylation of Flag immune complexes in a kinase assay, Western blotting with Akt cons Ab",[1],but not a phosphorylation-defective Thr346→Ala (T346A) PDK1 mutant
same,"phosphorylation in a kinase assay, Western blotting with Akt cons Ab",[2],"related PDK2, PDK3 or PDK4 isoforms were unreactive"
same,"phosphorylation in a kinase assay, Western blotting with Akt cons Ab",[3],active Akt1 or Akt2 readily phosphorylated PDK1
same,phosphorylation site by LC-MS/MS of chymotrypsin digests after a kinase assay,[3],"Thr346 (T346) was identified ... as the sole phospho-amino acid modified by Akt1 or Akt2, compared to control"
same,"phosphorylation in a kinase assay, Western blotting with Akt cons Ab",[4],"related PDK2, PDK3 or PDK4 isoforms were unreactive"
same,"phosphorylation of Flag immune complexes in a kinase assay, Western blotting with Akt cons Ab",[5],active Akt2 phosphorylated wild type (WT) PDK1
same,"phosphorylation in a kinase assay, Western blotting with Akt cons Ab",[6],"related PDK2, PDK3 or PDK4 isoforms were unreactive"
